Experimental findings from PMC3112443 are described below.

Series [1] in a line: non-reducing Western blot. Conditions: glycan lost; control: wild type. For orientation: A western blot detects proteins with antibodies after separation by electrophoresis.
Series [2] is described as follows: supernatant titer on PFVL luciferase indicator cells. The settings on record: glycan lost; control: wild type.

B1: human tetherin (HuTHN; BST-2, CD317, HM1.24): N65/92A (protein)
parent chain: MASTSYDYCRVPMEDGDKRCKLLLGIGILVLLIIVILGVPLIIFTIKANSEACRDGLRAVMECRNVTHLLQQELTEAQKGFQDVEAQAATCNHTVMALMASLDAEKAQGQKKVEELEGEITTLNHKLQDASAEVERLRRENQVLSVRIADKKYYPSSQDSSSAAAPQLLIVLLGLSALLQ
Consider B1, for which the oligomerisation entry in series [1] is “no change”. Besides, in series [2], the “other: inhibition of virus release” value is reported as “no change”.
